Results on eight proteins are retold here after PMC6628251, “Structural and Functional Impact of Seven Missense Variants of Phenylalanine Hydroxylase” (Genes, 2019).

Several values for one entry are separate records, joined by “and”; a condition that tells them apart may be missing. Identical values can stand only once.

Data set [1] concerns the molecule itself. In words: SEC; MBP-PAH expressed in E. coli XL1 blue without GroEL/ES; MBPTrap HP affinity, then Superdex 200 HR 10/30; 200 mM NaCl, 20 mM HEPES, pH 7.0; percent of oligomers, tetramers and dimers, mean of three column purifications. A general note: SEC sorts molecules by how far they enter the pores of the column.
Data set [2] deals with the molecule itself. Briefly: SEC; MBP-PAH co-expressed with GroEL/ES (pGroELS) in E. coli XL1 blue; MBPTrap HP affinity, then Superdex 200 HR 10/30; 200 mM NaCl, 20 mM HEPES, pH 7.0; percent of oligomers, tetramers and dimers, mean of three column purifications.
Data set [3] deals with the molecule itself. In words: SEC; MBP-PAH expressed in E. coli XL1 blue without GroEL/ES; MBPTrap HP affinity, then Superdex 200 HR 10/30; 200 mM NaCl, 20 mM HEPES, pH 7.0; percent of oligomers, tetramers and dimers, mean of three column purifications. The source holds these as a separate data set.

B1: human wild type phenylalanine hydroxylase, fusion with maltose-binding protein (enzyme, UniProt P00439 1-452, looked up)
chain: MSTAVLENPGLGRKLSDFGQETSYIEDNCNQNGAISLIFSLKEEVGALAKVLRLFEENDVNLTHIESRPSRLKKDEYEFFTHLDKRSLPALTNIIKILRHDIGATVHELSRDKKKDTVPWFPRTIQELDRFANQILSYGAELDADHPGFKDPVYRARRKQFADIAYNYRHGQPIPRVEYMEEEKKTWGTVFKTLKSLYKTHACYEYNHIFPLLEKYCGFHEDNIPQLEDVSQFLQTCTGFRLRPVAGLLSSRDFLGGLAFRVFHCTQYIRHGSKPMYTPEPDICHELLGHVPLFSDRSFAQFSQEIGLASLGAPDEYIEKLATIYWFTVEFGLCKQGDSIKAYGAGLLSSFGELQYCLSEKPKLLPLELEKTAIQNYTVTEFQPLYYVAESFNDAKEKVRNFAATIPRPFSVRYDPYTQRIEVLDNTQQLKILADSINSEIGILCSALQKIK
notes: phenylalanine hydroxylase (PAH), human, WT cDNA in the pMAL-MBP-c2 vector; also called WT PAH; PAH-MBP fusion protein
As for B1, the stoichiometry N (in general, a count of units in the complex or per binding partner) in data set [1] was 4 and 2.

B2: human phenylalanine hydroxylase variant p.Phe263Ser, fusion with maltose-binding protein (enzyme, UniProt P00439 1-452, looked up)
chain: MSTAVLENPGLGRKLSDFGQETSYIEDNCNQNGAISLIFSLKEEVGALAKVLRLFEENDVNLTHIESRPSRLKKDEYEFFTHLDKRSLPALTNIIKILRHDIGATVHELSRDKKKDTVPWFPRTIQELDRFANQILSYGAELDADHPGFKDPVYRARRKQFADIAYNYRHGQPIPRVEYMEEEKKTWGTVFKTLKSLYKTHACYEYNHIFPLLEKYCGFHEDNIPQLEDVSQFLQTCTGFRLRPVAGLLSSRDFLGGLAFRVSHCTQYIRHGSKPMYTPEPDICHELLGHVPLFSDRSFAQFSQEIGLASLGAPDEYIEKLATIYWFTVEFGLCKQGDSIKAYGAGLLSSFGELQYCLSEKPKLLPLELEKTAIQNYTVTEFQPLYYVAESFNDAKEKVRNFAATIPRPFSVRYDPYTQRIEVLDNTQQLKILADSINSEIGILCSALQKIK
notes: phenylalanine hydroxylase (PAH), human, missense variant from Czech PKU/HPA patients, made by site-directed mutagenesis of pMAL-PAH; Same construct as m1 with one substitution; also called c.788T>C
Regarding B2, in data set [2], the “percent of purified protein as dimers” value turned out to be 13.6% and the “percent of purified protein as tetramers” value turned out to be 11%. Also, the “percent of purified protein as dimers” value in data set [3] is 27.1%.

B3: human phenylalanine hydroxylase variant p.Ala342Pro, fusion with maltose-binding protein (enzyme, UniProt P00439 1-452, looked up)
chain: MSTAVLENPGLGRKLSDFGQETSYIEDNCNQNGAISLIFSLKEEVGALAKVLRLFEENDVNLTHIESRPSRLKKDEYEFFTHLDKRSLPALTNIIKILRHDIGATVHELSRDKKKDTVPWFPRTIQELDRFANQILSYGAELDADHPGFKDPVYRARRKQFADIAYNYRHGQPIPRVEYMEEEKKTWGTVFKTLKSLYKTHACYEYNHIFPLLEKYCGFHEDNIPQLEDVSQFLQTCTGFRLRPVAGLLSSRDFLGGLAFRVFHCTQYIRHGSKPMYTPEPDICHELLGHVPLFSDRSFAQFSQEIGLASLGAPDEYIEKLATIYWFTVEFGLCKQGDSIKPYGAGLLSSFGELQYCLSEKPKLLPLELEKTAIQNYTVTEFQPLYYVAESFNDAKEKVRNFAATIPRPFSVRYDPYTQRIEVLDNTQQLKILADSINSEIGILCSALQKIK
notes: phenylalanine hydroxylase (PAH), human, missense variant from Czech PKU/HPA patients, made by site-directed mutagenesis of pMAL-PAH; Same construct as m1 with one substitution; also called c.1024G>C
Take B3: in data set [2], the “percent of purified protein as dimers” value came out at 15.5% and the “percent of purified protein as tetramers” value worked out at 3.8%. Further, the “percent of purified protein as dimers” value in data set [3] came to 22%.

B4: human phenylalanine hydroxylase variant p.Ile406Met, fusion with maltose-binding protein (enzyme, UniProt P00439 1-452, looked up)
chain: MSTAVLENPGLGRKLSDFGQETSYIEDNCNQNGAISLIFSLKEEVGALAKVLRLFEENDVNLTHIESRPSRLKKDEYEFFTHLDKRSLPALTNIIKILRHDIGATVHELSRDKKKDTVPWFPRTIQELDRFANQILSYGAELDADHPGFKDPVYRARRKQFADIAYNYRHGQPIPRVEYMEEEKKTWGTVFKTLKSLYKTHACYEYNHIFPLLEKYCGFHEDNIPQLEDVSQFLQTCTGFRLRPVAGLLSSRDFLGGLAFRVFHCTQYIRHGSKPMYTPEPDICHELLGHVPLFSDRSFAQFSQEIGLASLGAPDEYIEKLATIYWFTVEFGLCKQGDSIKAYGAGLLSSFGELQYCLSEKPKLLPLELEKTAIQNYTVTEFQPLYYVAESFNDAKEKVRNFAATMPRPFSVRYDPYTQRIEVLDNTQQLKILADSINSEIGILCSALQKIK
notes: phenylalanine hydroxylase (PAH), human, missense variant from Czech PKU/HPA patients, made by site-directed mutagenesis of pMAL-PAH; Same construct as m1 with one substitution; also called c.1218A>G
On to B4, for which, in data set [2], the “percent of purified protein as dimers” value was 6.9% and the “percent of purified protein as tetramers” value stood at 37.7%. In data set [3], the “percent of purified protein as dimers” value amounted to 15.6% and the “percent of purified protein as tetramers” value came to 34.2%.

B5: human phenylalanine hydroxylase variant p.Thr200Asn, fusion with maltose-binding protein (enzyme, UniProt P00439 1-452, looked up)
chain: MSTAVLENPGLGRKLSDFGQETSYIEDNCNQNGAISLIFSLKEEVGALAKVLRLFEENDVNLTHIESRPSRLKKDEYEFFTHLDKRSLPALTNIIKILRHDIGATVHELSRDKKKDTVPWFPRTIQELDRFANQILSYGAELDADHPGFKDPVYRARRKQFADIAYNYRHGQPIPRVEYMEEEKKTWGTVFKTLKSLYKNHACYEYNHIFPLLEKYCGFHEDNIPQLEDVSQFLQTCTGFRLRPVAGLLSSRDFLGGLAFRVFHCTQYIRHGSKPMYTPEPDICHELLGHVPLFSDRSFAQFSQEIGLASLGAPDEYIEKLATIYWFTVEFGLCKQGDSIKAYGAGLLSSFGELQYCLSEKPKLLPLELEKTAIQNYTVTEFQPLYYVAESFNDAKEKVRNFAATIPRPFSVRYDPYTQRIEVLDNTQQLKILADSINSEIGILCSALQKIK
notes: phenylalanine hydroxylase (PAH), human, missense variant from Czech PKU/HPA patients, made by site-directed mutagenesis of pMAL-PAH; Same construct as m1 with one substitution; also called c.599C>A
On to B5, for which, in data set [2], the “percent of purified protein as dimers” value was determined as 4.5% and the “percent of purified protein as tetramers” value is 43.8%. For the same protein, in data set [3], the “percent of purified protein as dimers” value came to 10.5% and the “percent of purified protein as tetramers” value was 40.5%.

B6: human phenylalanine hydroxylase variant p.Asp229Gly, fusion with maltose-binding protein (enzyme, UniProt P00439 1-452, looked up)
chain: MSTAVLENPGLGRKLSDFGQETSYIEDNCNQNGAISLIFSLKEEVGALAKVLRLFEENDVNLTHIESRPSRLKKDEYEFFTHLDKRSLPALTNIIKILRHDIGATVHELSRDKKKDTVPWFPRTIQELDRFANQILSYGAELDADHPGFKDPVYRARRKQFADIAYNYRHGQPIPRVEYMEEEKKTWGTVFKTLKSLYKTHACYEYNHIFPLLEKYCGFHEDNIPQLEGVSQFLQTCTGFRLRPVAGLLSSRDFLGGLAFRVFHCTQYIRHGSKPMYTPEPDICHELLGHVPLFSDRSFAQFSQEIGLASLGAPDEYIEKLATIYWFTVEFGLCKQGDSIKAYGAGLLSSFGELQYCLSEKPKLLPLELEKTAIQNYTVTEFQPLYYVAESFNDAKEKVRNFAATIPRPFSVRYDPYTQRIEVLDNTQQLKILADSINSEIGILCSALQKIK
notes: phenylalanine hydroxylase (PAH), human, missense variant from Czech PKU/HPA patients, made by site-directed mutagenesis of pMAL-PAH; Same construct as m1 with one substitution; also called c.686A>G
With B6, in data set [2], the “percent of purified protein as dimers” value came out at 10.1% and the “percent of purified protein as tetramers” value came out at 10.2%. In data set [3], the “percent of purified protein as dimers” value turned out to be 19.3%.

B7: human phenylalanine hydroxylase variant p.Asn167Tyr, fusion with maltose-binding protein (enzyme, UniProt P00439 1-452, looked up)
chain: MSTAVLENPGLGRKLSDFGQETSYIEDNCNQNGAISLIFSLKEEVGALAKVLRLFEENDVNLTHIESRPSRLKKDEYEFFTHLDKRSLPALTNIIKILRHDIGATVHELSRDKKKDTVPWFPRTIQELDRFANQILSYGAELDADHPGFKDPVYRARRKQFADIAYYYRHGQPIPRVEYMEEEKKTWGTVFKTLKSLYKTHACYEYNHIFPLLEKYCGFHEDNIPQLEDVSQFLQTCTGFRLRPVAGLLSSRDFLGGLAFRVFHCTQYIRHGSKPMYTPEPDICHELLGHVPLFSDRSFAQFSQEIGLASLGAPDEYIEKLATIYWFTVEFGLCKQGDSIKAYGAGLLSSFGELQYCLSEKPKLLPLELEKTAIQNYTVTEFQPLYYVAESFNDAKEKVRNFAATIPRPFSVRYDPYTQRIEVLDNTQQLKILADSINSEIGILCSALQKIK
notes: phenylalanine hydroxylase (PAH), human, missense variant from Czech PKU/HPA patients, made by site-directed mutagenesis of pMAL-PAH; Same construct as m1 with one substitution; also called c.499A>T
For the protein B7, in data set [2], the “percent of purified protein as dimers” value was 8.5% and the “percent of purified protein as tetramers” value was determined as 38.8%. Besides, in data set [3], the “percent of purified protein as dimers” value is 20.2% and the “percent of purified protein as tetramers” value is 33.2%.

B8: human phenylalanine hydroxylase variant p.Gly239Ala, fusion with maltose-binding protein (enzyme, UniProt P00439 1-452, looked up)
chain: MSTAVLENPGLGRKLSDFGQETSYIEDNCNQNGAISLIFSLKEEVGALAKVLRLFEENDVNLTHIESRPSRLKKDEYEFFTHLDKRSLPALTNIIKILRHDIGATVHELSRDKKKDTVPWFPRTIQELDRFANQILSYGAELDADHPGFKDPVYRARRKQFADIAYNYRHGQPIPRVEYMEEEKKTWGTVFKTLKSLYKTHACYEYNHIFPLLEKYCGFHEDNIPQLEDVSQFLQTCTAFRLRPVAGLLSSRDFLGGLAFRVFHCTQYIRHGSKPMYTPEPDICHELLGHVPLFSDRSFAQFSQEIGLASLGAPDEYIEKLATIYWFTVEFGLCKQGDSIKAYGAGLLSSFGELQYCLSEKPKLLPLELEKTAIQNYTVTEFQPLYYVAESFNDAKEKVRNFAATIPRPFSVRYDPYTQRIEVLDNTQQLKILADSINSEIGILCSALQKIK
notes: phenylalanine hydroxylase (PAH), human, missense variant from Czech PKU/HPA patients, made by site-directed mutagenesis of pMAL-PAH; Same construct as m1 with one substitution; also called c.716G>C
Regarding B8, the “percent of purified protein as dimers” value in data set [2] amounted to 14%; in data set [3], 32.8%. Further, the “percent of purified protein as tetramers” value in data set [2] came out at 5.5%.
